Test results published in US20180155451A1 (published 2018).

T1: FcγRIIb extracellular domain with C-terminal His tag (human, UniProt P31994 43-217)
T1 construct: extracellular domain; soluble receptor expressed in FreeStyle293 cells, used as analyte in Biacore; also called FcgRIIb; 2b; not shown: His tag attached to the C terminus
T1 sequence (looked up): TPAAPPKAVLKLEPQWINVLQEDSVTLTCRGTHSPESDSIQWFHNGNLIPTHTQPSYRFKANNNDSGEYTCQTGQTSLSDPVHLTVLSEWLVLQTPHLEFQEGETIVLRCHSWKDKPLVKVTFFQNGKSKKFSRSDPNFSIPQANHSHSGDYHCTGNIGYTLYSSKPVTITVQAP


Key:
[1] = biological target: T1, FcγRIIb extracellular domain with …; assay: SPR (Biacore), antibody captured on antigen peptide chip, FcγR as analyte; relative binding
[2] = biological target: T2, FcγRIa extracellular domain with C-terminal His tag (human, UniProt P12314 16-292); assay: as above
T2 construct: extracellular domain; soluble receptor expressed in FreeStyle293 cells, used as analyte in Biacore; also called FcgRI; 1a; not shown: His tag attached to the C terminus
T2 sequence (P12314 16-292): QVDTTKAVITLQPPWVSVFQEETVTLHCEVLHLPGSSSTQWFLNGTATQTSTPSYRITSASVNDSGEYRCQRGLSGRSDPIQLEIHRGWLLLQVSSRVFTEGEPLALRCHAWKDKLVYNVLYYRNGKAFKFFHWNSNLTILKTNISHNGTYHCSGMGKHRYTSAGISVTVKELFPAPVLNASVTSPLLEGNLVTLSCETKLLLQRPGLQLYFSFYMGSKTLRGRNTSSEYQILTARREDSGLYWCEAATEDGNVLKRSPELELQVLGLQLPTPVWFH

He/Con_2b [1]	He/Con_1a [2]	Binder
63.7 % of control GpH7-A5/GpH7-B3/GpL16-k0 (=100)	106 % of control GpH7-A5/GpH7-B3/GpL16-k0 (=100)	GpH7-A5/GpH7-B3 variant A330_18N/GpL16-k0 (antibody, human IgG1, kappa, heterodimerized anti-glypican-3 IgG1; alteration in the GpH7-B3 chain only; also called He Ab) heavy 1: not shown heavy 2: not shown light: DIVMTQSPLSLPVTPGEPASISCQASESLVHSNRNTYLHWYLQKPGQSPQLLIYKVSNRFSGVPDRFSGSGSGTDFTLKISRVEAEDVGVYYCSQNTHVPPTFGQGTKVEIERTVAAPSVFIFPPSDEQLKSGTASVVCLLNNFYPREAKVQWKVDNALQSGNSQESVTEQDSKDSTYSLSSTLTLSKADYEKHKVYACEVTHQGLSSPVTKSFNRGEC
95 % of control GpH7-A5/GpH7-B3/GpL16-k0 (=100)	105 % of control GpH7-A5/GpH7-B3/GpL16-k0 (=100)	GpH7-A5/GpH7-B3 variant A330_15Y/GpL16-k0 (antibody, human IgG1, kappa, heterodimerized anti-glypican-3 IgG1; alteration in the GpH7-B3 chain only; also called He Ab) heavy 1: not shown heavy 2: not shown light: DIVMTQSPLSLPVTPGEPASISCQASESLVHSNRNTYLHWYLQKPGQSPQLLIYKVSNRFSGVPDRFSGSGSGTDFTLKISRVEAEDVGVYYCSQNTHVPPTFGQGTKVEIERTVAAPSVFIFPPSDEQLKSGTASVVCLLNNFYPREAKVQWKVDNALQSGNSQESVTEQDSKDSTYSLSSTLTLSKADYEKHKVYACEVTHQGLSSPVTKSFNRGEC
70.1 % of control GpH7-A5/GpH7-B3/GpL16-k0 (=100)	107 % of control GpH7-A5/GpH7-B3/GpL16-k0 (=100)	GpH7-A5/GpH7-B3 variant A330_10E/GpL16-k0 (antibody, human IgG1, kappa, heterodimerized anti-glypican-3 IgG1; alteration in the GpH7-B3 chain only; also called He Ab) heavy 1: not shown heavy 2: not shown light: DIVMTQSPLSLPVTPGEPASISCQASESLVHSNRNTYLHWYLQKPGQSPQLLIYKVSNRFSGVPDRFSGSGSGTDFTLKISRVEAEDVGVYYCSQNTHVPPTFGQGTKVEIERTVAAPSVFIFPPSDEQLKSGTASVVCLLNNFYPREAKVQWKVDNALQSGNSQESVTEQDSKDSTYSLSSTLTLSKADYEKHKVYACEVTHQGLSSPVTKSFNRGEC
39.5 % of control GpH7-A5/GpH7-B3/GpL16-k0 (=100)	77.9 % of control GpH7-A5/GpH7-B3/GpL16-k0 (=100)	GpH7-A5/GpH7-B3 variant D270_03V/GpL16-k0 (antibody, human IgG1, kappa, heterodimerized anti-glypican-3 IgG1; alteration in the GpH7-B3 chain only; also called He Ab) heavy 1: not shown heavy 2: not shown light: DIVMTQSPLSLPVTPGEPASISCQASESLVHSNRNTYLHWYLQKPGQSPQLLIYKVSNRFSGVPDRFSGSGSGTDFTLKISRVEAEDVGVYYCSQNTHVPPTFGQGTKVEIERTVAAPSVFIFPPSDEQLKSGTASVVCLLNNFYPREAKVQWKVDNALQSGNSQESVTEQDSKDSTYSLSSTLTLSKADYEKHKVYACEVTHQGLSSPVTKSFNRGEC
52.4 % of control GpH7-A5/GpH7-B3/GpL16-k0 (=100)	106 % of control GpH7-A5/GpH7-B3/GpL16-k0 (=100)	GpH7-A5/GpH7-B3 variant A330_03V/GpL16-k0 (antibody, human IgG1, kappa, heterodimerized anti-glypican-3 IgG1; alteration in the GpH7-B3 chain only; also called He Ab) heavy 1: not shown heavy 2: not shown light: DIVMTQSPLSLPVTPGEPASISCQASESLVHSNRNTYLHWYLQKPGQSPQLLIYKVSNRFSGVPDRFSGSGSGTDFTLKISRVEAEDVGVYYCSQNTHVPPTFGQGTKVEIERTVAAPSVFIFPPSDEQLKSGTASVVCLLNNFYPREAKVQWKVDNALQSGNSQESVTEQDSKDSTYSLSSTLTLSKADYEKHKVYACEVTHQGLSSPVTKSFNRGEC
76.1 % of control GpH7-A5/GpH7-B3/GpL16-k0 (=100)	108 % of control GpH7-A5/GpH7-B3/GpL16-k0 (=100)	GpH7-A5/GpH7-B3 variant A330_20W/GpL16-k0 (antibody, human IgG1, kappa, heterodimerized anti-glypican-3 IgG1; alteration in the GpH7-B3 chain only; also called He Ab) heavy 1: not shown heavy 2: not shown light: DIVMTQSPLSLPVTPGEPASISCQASESLVHSNRNTYLHWYLQKPGQSPQLLIYKVSNRFSGVPDRFSGSGSGTDFTLKISRVEAEDVGVYYCSQNTHVPPTFGQGTKVEIERTVAAPSVFIFPPSDEQLKSGTASVVCLLNNFYPREAKVQWKVDNALQSGNSQESVTEQDSKDSTYSLSSTLTLSKADYEKHKVYACEVTHQGLSSPVTKSFNRGEC
59.5 % of control GpH7-A5/GpH7-B3/GpL16-k0 (=100)	103 % of control GpH7-A5/GpH7-B3/GpL16-k0 (=100)	GpH7-A5/GpH7-B3 variant A327_06M/GpL16-k0 (antibody, human IgG1, kappa, heterodimerized anti-glypican-3 IgG1; alteration in the GpH7-B3 chain only; also called He Ab) heavy 1: not shown heavy 2: not shown light: DIVMTQSPLSLPVTPGEPASISCQASESLVHSNRNTYLHWYLQKPGQSPQLLIYKVSNRFSGVPDRFSGSGSGTDFTLKISRVEAEDVGVYYCSQNTHVPPTFGQGTKVEIERTVAAPSVFIFPPSDEQLKSGTASVVCLLNNFYPREAKVQWKVDNALQSGNSQESVTEQDSKDSTYSLSSTLTLSKADYEKHKVYACEVTHQGLSSPVTKSFNRGEC
94.7 % of control GpH7-A5/GpH7-B3/GpL16-k0 (=100)	103 % of control GpH7-A5/GpH7-B3/GpL16-k0 (=100)	GpH7-A5/GpH7-B3 variant A327_03V/GpL16-k0 (antibody, human IgG1, kappa, heterodimerized anti-glypican-3 IgG1; alteration in the GpH7-B3 chain only; also called He Ab) heavy 1: not shown heavy 2: not shown light: DIVMTQSPLSLPVTPGEPASISCQASESLVHSNRNTYLHWYLQKPGQSPQLLIYKVSNRFSGVPDRFSGSGSGTDFTLKISRVEAEDVGVYYCSQNTHVPPTFGQGTKVEIERTVAAPSVFIFPPSDEQLKSGTASVVCLLNNFYPREAKVQWKVDNALQSGNSQESVTEQDSKDSTYSLSSTLTLSKADYEKHKVYACEVTHQGLSSPVTKSFNRGEC
79.5 % of control GpH7-A5/GpH7-B3/GpL16-k0 (=100)	102 % of control GpH7-A5/GpH7-B3/GpL16-k0 (=100)	GpH7-A5/GpH7-B3 variant A327_13S/GpL16-k0 (antibody, human IgG1, kappa, heterodimerized anti-glypican-3 IgG1; alteration in the GpH7-B3 chain only; also called He Ab) heavy 1: not shown heavy 2: not shown light: DIVMTQSPLSLPVTPGEPASISCQASESLVHSNRNTYLHWYLQKPGQSPQLLIYKVSNRFSGVPDRFSGSGSGTDFTLKISRVEAEDVGVYYCSQNTHVPPTFGQGTKVEIERTVAAPSVFIFPPSDEQLKSGTASVVCLLNNFYPREAKVQWKVDNALQSGNSQESVTEQDSKDSTYSLSSTLTLSKADYEKHKVYACEVTHQGLSSPVTKSFNRGEC
87.6 % of control GpH7-A5/GpH7-B3/GpL16-k0 (=100)	106 % of control GpH7-A5/GpH7-B3/GpL16-k0 (=100)	GpH7-A5/GpH7-B3 variant A330_16H/GpL16-k0 (antibody, human IgG1, kappa, heterodimerized anti-glypican-3 IgG1; alteration in the GpH7-B3 chain only; also called He Ab) heavy 1: not shown heavy 2: not shown light: DIVMTQSPLSLPVTPGEPASISCQASESLVHSNRNTYLHWYLQKPGQSPQLLIYKVSNRFSGVPDRFSGSGSGTDFTLKISRVEAEDVGVYYCSQNTHVPPTFGQGTKVEIERTVAAPSVFIFPPSDEQLKSGTASVVCLLNNFYPREAKVQWKVDNALQSGNSQESVTEQDSKDSTYSLSSTLTLSKADYEKHKVYACEVTHQGLSSPVTKSFNRGEC
